What all share (experiment): SPR; Biacore T200; […]; single-cycle kinetics; […]
Test [1] addresses GP1_(JUNV)–Fc (Junín virus (JUNV)) (UniProt O10428).
Test [2] deals with GP1_(MACV)–Fc (Machupo virus (MACV)) (UniProt Q8AZ52).
Test [3] has as its target GP1_(WWAV)–Fc (Whitewater Arroyo virus (WWAV)) (UniProt Q911P0).

pKd: −log10 of the molar value.

Regarding “stand-alone apical domain (sAD) designed from White-throated woodrat TfR1 (domain or fragment)”, the values for the negative logarithm of the Kd (pKd) in test [1], in test [2] and in test [3] were 6.00, 8.40 and 6.00, respectively.
